± gives the standard error. For part of these data: Variants at the floor of the assay were thinned out.
B1: glmS ribozyme (parent)
chain: AUAAAAGCGCCAGAACUACAGAAAUGUAGUUGACGAGGAGGAGGUUUAUCGAAUUUUCGGCGGAUGCCUCCAAA

Experiments:
Conditions in all cases: with glucosamine-6-phosphate
[1] = variants of: B1; assay: kcat; higher = faster cleavage; RNA array
How it was run: (§1)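 E. coli RNA polymerase transcribed barcoded ribozyme variants in situ on sequenced MiSeq chips, which were tracked via a hybridised Cy3 probe at 37 °C. Tiles were imaged over ~14 h after glucosamine-6-phosphate (40 μM to 10 mM) in HEPES/KCl/Mg(OAc)2 buffer was flowed in. Normalised per-tile medians were fit to one- or two-exponential decays for kobs, and kcat and KM came from weighted Michaelis–Menten fits.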

[2] = variants of: B1; assay: KM; higher = weaker cofactor use; RNA array
How it was run: as §1

[3] = variants of: B1; assay: self-cleavage kobs at 160 uM GlcN6P; higher = faster cleavage; RNA array
How it was run: as §1

[4] = variants of: B1; assay: self-cleavage kobs at 640 uM GlcN6P; higher = faster cleavage; RNA array
How it was run: as §1

[5] = variants of: B1; assay: self-cleavage kobs at 2500 uM GlcN6P; higher = faster cleavage; RNA array
How it was run: as §1

[6] = variants of: B1; assay: self-cleavage kobs at 10000 uM GlcN6P; higher = faster cleavage; RNA array
How it was run: as §1

[7] = variants of: B1; assay: self-cleavage kobs at 40 uM GlcN6P; higher = faster cleavage; RNA array
How it was run: as §1

Row | Variant | kcat [1] [s⁻¹] | KM [2] [µM] | self-cleavage kobs at 160 uM GlcN6P [3] [s⁻¹] | self-cleavage kobs at 640 uM GlcN6P [4] [s⁻¹] | self-cleavage kobs at 2500 uM GlcN6P [5] [s⁻¹] | self-cleavage kobs at 10000 uM GlcN6P [6] [s⁻¹] | self-cleavage kobs at 40 uM GlcN6P [7] [s⁻¹]
1 | U30C U45A | 0.000449 ± 4.9e-05 | 1150 ± 280 | 5.04e-05 ± 1.7e-05 | 0.000176 ± 3.8e-05 | 0.000235 ± 8.7e-05 | 0.000418 ± 6e-05 | 
2 | U30C U45C | 3.55e-05 ± 1.6e-05 |  |  |  | 4.35e-05 ± 2.1e-05 |  | < 1e-05
3 | G29U G32C G43U A53U | 1.74e-05 ± 3.6e-06 | 9610 ± 3900 |  |  |  |  | < 1e-05
4 | G29U A33U | 6.61e-05 ± 1.9e-06 | 3280 ± 300 |  |  | 2.87e-05 ± 9.6e-06 | 4.97e-05 ± 6.7e-06 | 
5 | G29U G41C U54G C70G | 0.0128 ± 0.0056 |  |  | 0.00251 ± 0.00059 | 0.0068 ± 0.0018 | 0.0126 ± 0.0039 | 0.00037 ± 9.8e-05
6 | U30G G41C | 0.00013 ± 5.4e-06 | 2760 ± 240 |  |  | 6.27e-05 ± 1.2e-05 | 0.000101 ± 2.7e-05 | 
7 | U30G G41A | 0.000293 ± 2.6e-05 | 881 ± 160 | 4.24e-05 ± 1.1e-05 | 0.000124 ± 2e-05 | 0.00025 ± 4.4e-05 | 0.000248 ± 4.4e-05 | 
8 | U30A C68U | 0.000818 ± 0.00016 | 1730 ± 610 | 9.37e-05 ± 2e-05 | 0.000204 ± 2.7e-05 | 0.000417 ± 6.6e-05 | 0.000776 ± 9.4e-05 | 3.27e-05 ± 1.2e-05
9 | U31A A33G C70A | 1.81e-05 ± 5.1e-06 |  |  |  |  |  | 
10 | U30C G59A | < 1e-05 |  |  |  |  |  | 
11 | G29U G38A G59A C67A U69G | 2.86e-05 ± 6.2e-06 |  |  |  |  |  | 
12 | G29C U30A | 0.000322 ± 1.4e-05 | 2880 ± 230 |  | 5.97e-05 ± 1.4e-05 | 0.000141 ± 3.8e-05 | 0.000253 ± 4.6e-05 | 
13 | U30C C71G | 4.29e-05 ± 9.8e-06 |  |  | 4.3e-05 ± 1.8e-05 | 7.05e-05 ± 1.2e-05 | 3.35e-05 ± 7.1e-06 | 
14 | U30G U55G | 0.00756 ± 0.0019 | 1440 ± 590 |  | 0.00222 ± 0.00047 | 0.00378 ± 0.00086 | 0.00866 ± 0.0016 | 0.00025 ± 5.1e-05
15 | U30G U55C | 0.00519 ± 0.00037 | 883 ± 120 |  | 0.00192 ± 0.00068 | 0.00363 ± 0.00086 | 0.00502 ± 0.00092 | 0.000236 ± 5e-05
16 | U30C U56C | 0.000116 ± 7.6e-06 | 4270 ± 610 |  |  | 4.38e-05 ± 4.8e-06 | 8.1e-05 ± 7e-06 | 

Row | Variant | kcat [1] [s⁻¹] | KM [2] [µM] | self-cleavage kobs at 160 uM GlcN6P [3] [s⁻¹] | self-cleavage kobs at 640 uM GlcN6P [4] [s⁻¹] | self-cleavage kobs at 2500 uM GlcN6P [5] [s⁻¹] | self-cleavage kobs at 10000 uM GlcN6P [6] [s⁻¹] | self-cleavage kobs at 40 uM GlcN6P [7] [s⁻¹]
17 | U30C G63U | 1.08e-05 ± 3e-06 |  |  |  |  | < 1e-05 | 
18 | G26U C70A | 0.000113 ± 4.5e-05 |  | 7.79e-05 ± 2.3e-05 | 6.27e-05 ± 1.2e-05 | 0.0002 ± 4e-05 | 0.000106 ± 1.9e-05 | 
19 | G26U C70G | 0.000115 ± 1e-05 | 142 ± 48 | 6.66e-05 ± 1.3e-05 | 9.17e-05 ± 1.7e-05 | 0.000117 ± 1.6e-05 | 9.26e-05 ± 2.8e-05 | 
20 | G29A C68G | 3.6e-05 ± 1e-05 |  | 2.59e-05 ± 1.2e-05 | 4.89e-05 ± 9.9e-06 | 3.97e-05 ± 1.1e-05 |  | 
21 | G29A C68U | 0.000627 ± 0.0001 | 1720 ± 550 | 6.11e-05 ± 8.5e-06 | 0.000122 ± 2.6e-05 | 0.000374 ± 4.7e-05 | 0.000549 ± 5.1e-05 | 2.8e-05 ± 8.3e-06
22 | U30C A39G | 0.00121 ± 0.00015 | 3930 ± 730 | 5.74e-05 ± 1.6e-05 | 0.00016 ± 2.7e-05 | 0.00046 ± 6.8e-05 | 0.000888 ± 0.00014 | 
23 | G29U U69A | 5.85e-05 ± 1.1e-05 |  |  | 3.35e-05 ± 1e-05 | 6.77e-05 ± 9.3e-06 | 4.84e-05 ± 1.1e-05 | 
24 | G29U G40A | 0.000509 ± 4.9e-05 | 859 ± 180 | 7.2e-05 ± 1.3e-05 | 0.000221 ± 3.7e-05 | 0.000464 ± 6.4e-05 | 0.000441 ± 4.7e-05 | 2.61e-05 ± 7.8e-06
25 | G29U G40C | 0.000254 ± 6.3e-05 |  |  | 0.000105 ± 2.4e-05 | 0.000138 ± 3.6e-05 | 0.000281 ± 5.2e-05 | 
26 | G29C A52U | 5.44e-05 ± 2.8e-06 | 1790 ± 390 |  |  | 3.25e-05 ± 1.4e-05 | 4.6e-05 ± 1e-05 | < 1e-05
27 | U30A U55A C71U | 0.00347 ± 0.0015 |  |  | 0.00113 ± 0.00035 | 0.00197 ± 0.00068 | 0.00566 ± 0.0018 | 0.000138 ± 3.7e-05
28 | U30C U65G | 7.96e-05 ± 3.5e-06 | 1130 ± 230 |  | 3.09e-05 ± 1e-05 | 4.99e-05 ± 1.1e-05 | 7.23e-05 ± 6.6e-06 | 
29 | G29U U45A | 0.0141 ± 0.0034 | 2740 ± 820 | 0.000796 ± 0.00018 | 0.00237 ± 0.00044 | 0.00765 ± 0.0017 | 0.0103 ± 0.005 | 0.000225 ± 4.9e-05
30 | G29U U45G | 0.000648 ± 0.00013 | 1660 ± 680 | 3.73e-05 ± 1.2e-05 | 0.000217 ± 2.8e-05 | 0.00064 ± 0.00013 | 0.000522 ± 5.5e-05 | 
31 | U30C C67A | 8.57e-05 ± 7.5e-06 |  |  | 7.21e-05 ± 1.3e-05 | 6.84e-05 ± 1.1e-05 | 8.63e-05 ± 8.9e-06 | 
32 | U30A C71U | 0.0039 ± 0.00081 | 1470 ± 450 | 0.000337 ± 8e-05 | 0.00116 ± 0.00024 | 0.0021 ± 0.00045 | 0.00416 ± 0.00086 | 0.000127 ± 2.5e-05

From the supplement of paper PMC7125110
